Reference: the supplement of paper PMC9112550, “Optimization of the antimicrobial peptide Bac7 by deep mutational scanning” (BMC Biology, 2022)

The sequences below were run on Escherichia coli TOP10 (assay: shrunken log2 fold change of peptide-encoding DNA abundance (4.5 h post-induction vs induction); higher = less antimicrobial activity (less host growth inhibition)). Conditions: time post-induction: 4.5 h; library: site-saturation at positions 5, 18, 19, 20.
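Also: peptides expressed intracellularly from a pBAD plasmid library in pooled LB shake-flask culture, induced with 0.3% L-arabinose, DNA abundance read by NGS, three biological replicates, DESeq2 with apeglm shrinkage.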

In order of rising “shrunken log2 fold change” value:
1. RRIRIRPPRLPRPRPRPSFIPRP  -1.24
2. RRIRYRPPRLPRPRPRPPCSPRP  -0.957
3. RRIRLRPPRLPRPRPRPGIKPRP  -0.874
4. RRIRIRPPRLPRPRPRPTIMPRP  -0.745
5. RRIRYRPPRLPRPRPRPPFDPRP  -0.565
6. RRIRIRPPRLPRPRPRPAMVPRP  -0.547
7. RRIRYRPPRLPRPRPRPWVDPRP  -0.445
8. RRIRLRPPRLPRPRPRPQNKPRP  -0.432
9. RRIRNRPPRLPRPRPRPCYAPRP  -0.424
10. RRIRCRPPRLPRPRPRPMNRPRP  -0.35
11. RRIRYRPPRLPRPRPRPPHNPRP  -0.275
12. RRIRYRPPRLPRPRPRPWQQPRP  -0.273
13. RRIRVRPPRLPRPRPRPLYDPRP  -0.257
14. RRIRCRPPRLPRPRPRPYPYPRP  -0.248
15. RRIRHRPPRLPRPRPRPVWMPRP  -0.243
16. RRIRSRPPRLPRPRPRPNHMPRP  -0.236
17. RRIRIRPPRLPRPRPRPFYMPRP  -0.235
18. RRIRERPPRLPRPRPRPCGDPRP  -0.231
19. RRIRFRPPRLPRPRPRPWNPPRP  -0.222
20. RRIRYRPPRLPRPRPRPQDAPRP  -0.215
21. RRIRRRPPRLPRPRPRPFKHPRP  -0.212
22. RRIRCRPPRLPRPRPRPWDPPRP  -0.211
23. RRIRFRPPRLPRPRPRPMIAPRP  -0.195
24. RRIRIRPPRLPRPRPRPFQWPRP  -0.192
25. RRIRWRPPRLPRPRPRPWNFPRP  -0.188
26. RRIRERPPRLPRPRPRPNKQPRP  -0.174
27. RRIRKRPPRLPRPRPRPFHPPRP  -0.158
28. RRIRARPPRLPRPRPRPSNSPRP  -0.156
29. RRIRLRPPRLPRPRPRPHWYPRP  -0.128
30. RRIRTRPPRLPRPRPRPFKEPRP  -0.125
31. RRIRQRPPRLPRPRPRPVHNPRP  -0.121
32. RRIRVRPPRLPRPRPRPDRPPRP  -0.109
33. RRIRRRPPRLPRPRPRPQKSPRP  -0.106
34. RRIRQRPPRLPRPRPRPIQIPRP  -0.105
35. RRIRNRPPRLPRPRPRPTQCPRP  -0.093
36. RRIRNRPPRLPRPRPRPTCIPRP  -0.0808
37. RRIRARPPRLPRPRPRPFDSPRP  -0.0745
38. RRIRIRPPRLPRPRPRPMVLPRP  -0.071
39. RRIRGRPPRLPRPRPRPSYMPRP  -0.0696
40. RRIRSRPPRLPRPRPRPCLNPRP  -0.0696
41. RRIRLRPPRLPRPRPRPTAYPRP  -0.047
42. RRIRARPPRLPRPRPRPRVIPRP  -0.0156
43. RRIRCRPPRLPRPRPRPWTYPRP  -0.015
44. RRIRIRPPRLPRPRPRPKDCPRP  -0.0124
45. RRIRMRPPRLPRPRPRPYGFPRP  -0.00952
46. RRIRIRPPRLPRPRPRPHLRPRP  -0.00802
47. RRIRPRPPRLPRPRPRPFPFPRP  -0.00615
48. RRIRSRPPRLPRPRPRPGRLPRP  0.00392
49. RRIRPRPPRLPRPRPRPRKVPRP  0.00959
50. RRIRDRPPRLPRPRPRPSVSPRP  0.0104
51. RRIRERPPRLPRPRPRPDWMPRP  0.0111
52. RRIRMRPPRLPRPRPRPANLPRP  0.013
53. RRIRCRPPRLPRPRPRPMMQPRP  0.0143
54. RRIRQRPPRLPRPRPRPCHRPRP  0.0197
55. RRIRHRPPRLPRPRPRPSQMPRP  0.0205
56. RRIRGRPPRLPRPRPRPHVGPRP  0.0375
57. RRIRDRPPRLPRPRPRPAFKPRP  0.0611
58. RRIRTRPPRLPRPRPRPGHWPRP  0.0708
59. RRIRHRPPRLPRPRPRPHRAPRP  0.0912
60. RRIRARPPRLPRPRPRPSFVPRP  0.0934
61. RRIRWRPPRLPRPRPRPQQQPRP  0.108
62. RRIRMRPPRLPRPRPRPNTNPRP  0.128
63. RRIRARPPRLPRPRPRPVKRPRP  0.138
64. RRIRQRPPRLPRPRPRPTAYPRP  0.14
65. RRIRARPPRLPRPRPRPPTFPRP  0.158
66. RRIRKRPPRLPRPRPRPHSPPRP  0.16
67. RRIRKRPPRLPRPRPRPMHEPRP  0.191
68. RRIRTRPPRLPRPRPRPPATPRP  0.213
69. RRIRARPPRLPRPRPRPLSCPRP  0.214
70. RRIRWRPPRLPRPRPRPVKNPRP  0.238
71. RRIRDRPPRLPRPRPRPPWFPRP  0.336
72. RRIRKRPPRLPRPRPRPGWDPRP  0.364
73. RRIRFRPPRLPRPRPRPRESPRP  0.45
74. RRIRFRPPRLPRPRPRPESWPRP  0.53
75. RRIRGRPPRLPRPRPRPFIDPRP  0.585
